The results in this text go back to patent US20200262914A1 (MIT, published 2020).

In test [1] the target is T1, human Bcl-xL (residues 1-209) (human, UniProt Q07817 1-209).
T1 construct: range 1-209
Briefly: yeast display, sparse titration, apparent KD.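 Further: designs displayed on the yeast cell surface, binding of soluble target protein measured at four concentrations spanning nanomolar to micromolar, apparent KD estimated from this sparse titration.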
Protocol: (§1) We measured binding of the designs to 1, 10, 100 or 1000 nM of Bcl-xL, Mcl-1 and Bfl-1 using yeast cell-surface display.

Test [2] has as its target T2, human Bfl-1 (residues 1-151) (human, UniProt Q16548 1-151).
T2 construct: range 1-151
T2 sequence (looked up): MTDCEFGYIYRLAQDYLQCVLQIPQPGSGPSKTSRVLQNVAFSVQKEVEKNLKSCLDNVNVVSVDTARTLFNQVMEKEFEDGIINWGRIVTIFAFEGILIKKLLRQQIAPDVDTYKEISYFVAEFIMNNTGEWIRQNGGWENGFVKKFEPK
Briefly: yeast surface display.

Test [3] addresses T3, human Mcl-1 (residues 172-327) (human, UniProt Q07820 172-327).
T3 construct: range 172-327
Nature of the test: yeast surface display.

In test [4] the target is T1, human Bcl-xL (residues 1-209). Nature of the test: yeast surface display.
The target of test [5] is T3, human Mcl-1 (residues 172-327). Nature of the test: yeast display, sparse titration, apparent KD.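 Further: designs displayed on the yeast cell surface, binding of soluble target protein measured at four concentrations spanning nanomolar to micromolar, apparent KD estimated from this sparse titration.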
Protocol: as §1
For test [6] the target is unchanged. Nature of the test: competition FP vs fluoresceinated Bim BH3, solution.
Description: (§2) We used the cell-surface experiments to select six peptides, for which we determined solution Ki values using a competition fluorescence polarization (FP) assay (FIG. 3, panel d).
The target in test [7] is T2, human Bfl-1 (residues 1-151). The test is described as above.
Description: as §2
For test [8] the target is unchanged. Briefly: yeast display, sparse titration, apparent KD.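 Further: designs displayed on the yeast cell surface, binding of soluble target protein measured at four concentrations spanning nanomolar to micromolar, apparent KD estimated from this sparse titration.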
Protocol: as §1

T3 sequence (Q07820 172-327 limits assumed): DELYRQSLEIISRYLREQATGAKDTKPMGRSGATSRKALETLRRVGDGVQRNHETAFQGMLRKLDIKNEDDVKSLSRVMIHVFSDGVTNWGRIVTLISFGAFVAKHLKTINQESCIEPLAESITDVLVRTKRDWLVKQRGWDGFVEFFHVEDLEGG
T1 sequence (Q07817 1-209 limits assumed): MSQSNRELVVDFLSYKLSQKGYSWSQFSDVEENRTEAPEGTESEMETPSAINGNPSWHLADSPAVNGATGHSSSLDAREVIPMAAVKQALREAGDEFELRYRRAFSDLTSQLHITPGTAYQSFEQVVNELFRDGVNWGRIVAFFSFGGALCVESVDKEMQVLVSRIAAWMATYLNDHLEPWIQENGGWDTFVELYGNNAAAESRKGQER

B1: X2 (peptide)
peptide: GQTLIWYGAQLRRYADEFAKQR
With B1, in test [1], the Kd was under 100 nM.

B2: X9 (peptide)
peptide: GQTLIWYGAQLRRYADDFAKQR
Consider B2, for which the Kd in test [1] was under 100 nM.

B3: X8 (peptide)
peptide: GQSMIWYGASLRRAADEFAKQR
On to B3, for which the Kd in test [1] is under 100 nM.

B4: X5 (peptide)
peptide: GQTAIWYGASLRRAADEFAKQR
B4: the Kd in test [1] was under 100 nM.

B5: X10 (peptide)
peptide: GQRLIWYGAQLRRYADDFAKQR
Regarding B5, in test [1], the Kd was under 100 nM.

B6: X4 (peptide)
peptide: GQTLIWYGAQLRRVADDFAKQR
Turning to B6, in test [1], the Kd is under 100 nM.

B7: X12 (peptide)
peptide: GQGLIWYGAQLRRVADDFAKQR
Regarding B7, the Kd in test [1] was under 100 nM.

B8: X1 (peptide)
peptide: GQTLIWYGASLRRYADEFAKQR
On to B8, for which, in test [1], the Kd was under 100 nM.

B9: MF03 (peptide)
peptide: GRRVDEIAQILRRIGDNIEEYI
For the molecule B9, the binding result in test [2], in test [3] and in test [4] was “binds” each time.

B10: MF06 (peptide)
peptide: GRRVDEIAQILRRIGDNVTTYI
notes: also called MF6
Consider B10, for which the binding result in test [2] and in test [3] was “binds” in each case.

B11: M9 (peptide)
peptide: GRSQYEVIQELIRIGDIVLAYF
Consider B11, for which the Kd in test [5] was under 100 nM.

B12: srt.M1 (peptide)
peptide: Ac-RSELEVVQELVRIGDIVVAYFER-NH2
notes: synthetic solution peptide; also called vM1
As usually defined, the Ki is a dissociation constant, usually derived from enzyme kinetics or from competition with a known ligand. Lower therefore signals a stronger hold on the target. Molecule B12 registered a Ki in test [6] of 2.4 nM.

B13: Puma (peptide)
peptide: Ac-QWAREIGAQLRRMADDLNAQYER-NH2
Consider B13, for which the figures for the inhibition constant Ki in test [7] and in test [6] were 4.8 nM and 1.69 nM, respectively.

B14: F6 (peptide)
peptide: GQRVVQIAAGLRRTGDQLEKYG
On to B14, for which, in test [8], the Kd is under 100 nM.

B15: F5 (peptide)
peptide: GQRVVHIAQGLRRTGDQLEAQG
As to B15, the Kd in test [8] is under 100 nM.

B16: F8 (peptide)
peptide: GRRVVQIAAGLRRTGDQLEKQG
In the case of B16, the Kd in test [8] was under 100 nM.

B17: F7 (peptide)
peptide: GQRVVQIAQGLRRTGDQLEKQG
Consider B17, for which the Kd in test [8] is under 100 nM.

B18: F3 (peptide)
peptide: GRRVVHIAAGLRRTGDQLEAQG
B18: the Kd in test [8] is under 100 nM.

B19: F11 (peptide)
peptide: GQRVVQIAQGLRRAGDQLEKYG
B19: in test [8], the Kd was under 100 nM.

B20: F12 (peptide)
peptide: GRRVVQIAQGLRRAGDQLEKQG
Regarding B20, in test [8], the Kd is under 100 nM.

B21: srt.F10 (peptide)
peptide: Ac-RRVVQIAAGLRRAGDQLEKYGER-NH2
In test [7], B21 displayed a Ki of 300 nM.

B22: F1 (peptide)
peptide: GRRVRHIAQGLRRAGDQLDAYG
In the case of B22, the Kd in test [8] was under 100 nM.

B23: F9 (peptide)
peptide: GRRVRHIAQGLRRAGDQLDKYG
Regarding B23, in test [8], the Kd is under 100 nM.

B24: F2 (peptide)
peptide: GQRVRHIAQGLRRTGDQLDAYG
B24: the Kd in test [8] was under 100 nM.

B25: srt.F4 (peptide)
peptide: Ac-QRVVHIAAGLRRTGDQLEAYGER-NH2
For the molecule B25, the inhibitory constant (Ki) in test [7] was over 4000 nM.

B26: MF02 (peptide)
peptide: GRWIDQIAQFLRRIGDHIEKYI
notes: also called MF2
Take B26: the binding result in test [2], in test [3] and in test [4] was “binds” in each case.

B27: srt.M9 (peptide)
peptide: Ac-RSQYEVIQELIRIGDIVLAYFER-NH2
notes: synthetic solution peptide; also called vM9
Take B27: in test [6], the inhibition constant (Ki) amounted to 0.6 nM.

B28: MF01 (peptide)
peptide: GRRIDEIAQILRRIGDHIEKYI
On to B28, for which the binding result in test [2], in test [3] and in test [4] was “binds” each time.

B29: MF05 (peptide)
peptide: GRRIDEIAQILRRIGDHVEKYI
As to B29, the binding result in test [2], in test [3] and in test [4] was “binds” in each case.

B30: M11 (peptide)
peptide: GRSEYEYIQELIRIGDIVDAYF
On to B30, for which the Kd in test [5] was under 100 nM.

B31: M12 (peptide)
peptide: GRGQYEYIQELIRIGDIVDAYF
Take B31: the Kd in test [5] is under 100 nM.

B32: M10 (peptide)
peptide: GRSEYEYIQELIRIGDNVDAYF
Take B32: in test [5], the Kd was under 100 nM.

B33: M5 (peptide)
peptide: GRSELEYIQELVRIGDEVDAYF
In the case of B33, the Kd in test [5] is under 100 nM.

B34: M8 (peptide)
peptide: GRSELEYIQELIRIGDIVDAYF
On to B34, for which the Kd in test [5] is under 100 nM.

B35: M2 (peptide)
peptide: GRSEYEYIQELVRIGDEVDAYF
In the case of B35, the Kd in test [5] was under 100 nM.

B36: M6 (peptide)
peptide: GRGQLEYIQELIRIGDIVDAYF
B36: in test [5], the Kd is under 100 nM.

B37: M7 (peptide)
peptide: GRSELEYIQELIRIGDNVDAYF
In the case of B37, the Kd in test [5] was under 100 nM.

B38: X6 (peptide)
peptide: GQSLIWFGASLRRGADEFAAQR
Consider B38, for which, in test [1], the Kd is under 100 nM.

B39: X7 (peptide)
peptide: GQPLIWFGAQLRRGADEFAAQR
As to B39, the Kd in test [1] was under 100 nM.

B40: X11 (peptide)
peptide: GQTLIWFGASLRRGADEFAAQR
Turning to B40, the Kd in test [1] is under 100 nM.

B41: X3 (peptide)
peptide: GQPLIWFGASLRRGADEFAKQR
As for B41, in test [1], the Kd is under 100 nM.

B42: M3 (peptide)
peptide: GRSLYEYIQELIRIGDEVTAYF
As for B42, the Kd in test [5] was under 100 nM.

B43: M4 (peptide)
peptide: GRSLLEYIQELIRIGDEVIAYF
As for B43, the Kd in test [5] is under 100 nM.

B44: MX2 (peptide)
peptide: GRSQIWYDQELVRSGDVNAAYR
As to B44, the binding result in test [3] and in test [4] was “no binding” throughout.

B45: MX3 (peptide)
peptide: GRSQIWYDQELVRSGDENAAYR
For B45, the binding result in test [3] and in test [4] was “no binding” in each case.

B46: MX6 (peptide)
peptide: GRSQIWYVQELVRSGDVNHAYR
In the case of B46, the binding result in test [3] and in test [4] was “no binding” throughout.

B47: MX7 (peptide)
peptide: GRSEIWYDQELVRSGDVNAAYR
For the molecule B47, the binding result in test [3] and in test [4] was “no binding” in each case.

B48: MX4 (peptide)
peptide: GRSQIWYDQELVRYADVNAAYR
As to B48, the binding result in test [3] and in test [4] was “no binding” in each case.

B49: MX5 (peptide)
peptide: GRSQIWYDQELVRYGDVNAAYR
As for B49, the binding result in test [3] and in test [4] was “no binding” in each case.

B50: MX1 (peptide)
peptide: GRSQIWYVQELVRGGDVNHAYR
On to B50, for which the binding result in test [3] and in test [4] was “no binding” throughout.

B51: M1 (peptide)
peptide: GRSELEVVQELVRIGDIVVAYF
For the molecule B51, the Kd in test [5] is under 100 nM.
